According to patent US20180002445A1 (published 2018):
Blank lines part the entries; values can stand above or below the binder they belong to.

Key:
[1] = molecular target: T1, membranous SOD of human tumor cells (MKN-45 gastric carcinoma, SHEP neuroblastoma) (human, UniProt P00441 2-154); test: cell-based or functional assay
[2] = molecular target: T2, human catalase (human, UniProt P04040 2-527); test: heading of the sequence table; ELISA selection
T2 construct: Target of the ELISA by which the clones were selected
T2 sequence (looked up): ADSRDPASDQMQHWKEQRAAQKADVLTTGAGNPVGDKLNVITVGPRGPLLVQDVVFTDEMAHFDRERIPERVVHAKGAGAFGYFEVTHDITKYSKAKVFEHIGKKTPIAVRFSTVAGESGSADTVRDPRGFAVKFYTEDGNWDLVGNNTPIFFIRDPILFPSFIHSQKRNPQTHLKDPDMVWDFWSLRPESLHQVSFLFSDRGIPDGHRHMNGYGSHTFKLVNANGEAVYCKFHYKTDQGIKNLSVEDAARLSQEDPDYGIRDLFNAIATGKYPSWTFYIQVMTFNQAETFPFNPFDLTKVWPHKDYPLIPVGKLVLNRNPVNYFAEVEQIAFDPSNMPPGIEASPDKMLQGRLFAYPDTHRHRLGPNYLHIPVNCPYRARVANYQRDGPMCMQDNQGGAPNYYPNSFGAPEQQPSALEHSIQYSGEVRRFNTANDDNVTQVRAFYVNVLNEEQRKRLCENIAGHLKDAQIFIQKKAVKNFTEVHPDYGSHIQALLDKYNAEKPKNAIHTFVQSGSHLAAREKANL

[3] = molecular target: T3, human SOD1 (human, UniProt P00441 2-154); test: heading of the sequence table; ELISA selection
T3 construct: Target of the ELISA by which the clones were selected; also called Cu/ZnSOD; superoxide dismutase
T3 sequence (P00441 2-154 limits assumed): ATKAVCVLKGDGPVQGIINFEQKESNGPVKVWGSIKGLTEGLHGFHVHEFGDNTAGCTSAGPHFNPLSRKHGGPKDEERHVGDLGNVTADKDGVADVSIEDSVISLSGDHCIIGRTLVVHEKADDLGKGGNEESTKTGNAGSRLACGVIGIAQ

[4] = molecular target: T1, membranous SOD of human tumor cells …; test: cell-based or functional assay; remark: listed apart in the source
[5] = molecular target: T4, membranous catalase of human tumor cells (MKN-45 gastric carcinoma, SHEP neuroblastoma) (human, UniProt P04040 2-527); test: cell-based or functional assay
T4 sequence (looked up): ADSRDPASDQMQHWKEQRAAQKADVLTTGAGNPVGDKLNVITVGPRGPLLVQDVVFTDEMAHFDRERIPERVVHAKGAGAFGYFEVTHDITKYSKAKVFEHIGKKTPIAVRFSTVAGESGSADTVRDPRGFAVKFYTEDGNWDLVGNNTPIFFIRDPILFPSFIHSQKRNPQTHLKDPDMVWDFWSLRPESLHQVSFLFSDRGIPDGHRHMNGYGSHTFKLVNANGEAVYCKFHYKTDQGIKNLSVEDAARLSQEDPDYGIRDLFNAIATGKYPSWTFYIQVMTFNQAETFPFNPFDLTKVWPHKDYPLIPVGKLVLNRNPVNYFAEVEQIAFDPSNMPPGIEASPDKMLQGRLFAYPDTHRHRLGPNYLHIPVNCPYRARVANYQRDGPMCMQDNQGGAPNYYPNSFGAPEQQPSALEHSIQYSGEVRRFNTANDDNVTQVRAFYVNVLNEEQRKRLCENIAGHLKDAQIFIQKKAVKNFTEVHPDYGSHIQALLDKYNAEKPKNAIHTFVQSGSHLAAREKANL

T1 sequence (P00441 2-154): as the sequence (P00441 2-154 limits assumed) above

B1: aSODcb0989 (VHH)
VHH: QVQLVESGGGLVQSGGSLTLSCTASGFTISNYPMTWVRQAPGKGLEWVSRINSGGDRTLYADSVKGRFTVSRDNARNTMYLQMNNLKPEDTGLYFCADSGAGWRYWGQGTQVTVSS
relation (molar basis) (against aCATaSOD) [1]: 2920 fold | relation to opt. conc. hybrid Fab (against aCATaSOD) [1]: 1460 fold

B5: aSODcb0987 (VHH)
VHH: QVQLVESGGGIVQPGGSLRLSCVASESISEIDAMYWHRQAPGKERELVAGITNDGTRYYADSVKGRFTISRDNAKSTLYLQMNSLKFEDTAMYYCAALPNPPPGYWGQGTQVTVSS
notes: Recombinant alpaca single domain VHH fragment against human SOD1
binding result [3]: binds

B6: aSODcb0991 (VHH)
VHH: QVQLVESGGGIVQPGGSLRLSCVASESISDIDAMYWHRQAPGKRRELVAGITNDGTEYFADSVKGRFAISRDNTKSSLYLQMNSLKLEDTAMYYCATLPNPPPGYWGQGTQVTVSS
concentration required for apoptosis induction in SHEP cells, against the neutralizing single domain VHH fragment [4]: 1e+06 fold

B7: aCATcb0972 (VHH)
VHH: QVQLVESGGGLVQAGGSLRLSCAASERTFNTYGMGWFRQAPGKEREFVATISWSGDSTYYADSVKGRFTISRDNAKNTMYLQMNSLKPEDTAVYYCNANSEYGDSYWGQGTQVTVSS
relation (molar basis) (against aCATaSOD) [5]: 1420 fold | relation to opt. conc. hybrid Fab (against aCATaSOD) [5]: 708 fold

Next, values leading:

binding result [2]: binds
B2: aCATcb0973 (VHH)
VHH: EVQLVESGGGLVQPGGSLRLSCAVSGFIFNTYSMRWGRQAPGKGLEWVSSISTGGYSTYADSVKGRFTISRDNAKNLVYLQMNSLKPEDTAVYYCGWGAFVRGERPQGQGTQVTVSS
notes: Recombinant alpaca single domain VHH fragment against human catalase

binding result [2]: binds
B3: aCATcb0975 (VHH)
VHH: QVQLVESGGGLVQPGGSLRLSCAASASIFSIYVMAWYRQAPGKQRELVATVTSGGATNYANSVKGRFTISRDNAKNTMDLQMNSLKPEDTAVYYCNAEDYYDYGLSRSKIYWGQGTQVTVSS
notes: as for B2

binding result [2]: binds
B4: aCATcb0974 (VHH)
VHH: QVQLVESGGGLVQPGGSLRLSCAASGSIFSIASMGWYRQAPGKQRDLVATITSDGSTKYADSVKGRFTISRDNAKNTMYLQMNSVKPEDAAVYYCNADADDLEPGSYDYDYWGQGTQVTVSS
notes: Recombinant alpaca single domain VHH fragment against human catalase; also called aCATcb9074
